In US20200308301A1 (Novartis, published 2020):

Assays:
[1] = target: T1, NOV1401; experiment: Solution equilibrium titration (SET), 1:1 fit, average
T1 construct: It was amine-coupled to the chip in SPR, and used soluble and biotinylated in SET; also called anti-FXI/FXIa antibody NOV1401; anti-Factor XI/FXIa antibody NOV1401
Description: (§1) 14 serial (2×) dilutions of NOV1401 were prepared in sample buffer (PBS pH 7.4 containing 0.5% (w/v) BSA and 0.02% Tween 20) and a constant concentration of the anti-NOV1401 Fab or IgG was added to each NOV1401 concentration ranging from 40 pM to 240 pM. Optimal constant anti-NOV1401 Fab or IgG concentrations and optimal starting concentrations for NOV1401 dilution series were determined in pilot experiments.
(§2) After incubation and three times washing with PBST (PBS containing 0.05% Tween 20) 30 μl/well of the NOV1401/anti-NOV1401 Fab or IgG preparation was transferred from the polypropylene MTP to the NOV1401-coated SA plate and incubated for 30 min at RT on a MTP shaker. After three additional wash steps, 30 μl of 0.5 μg/ml detection antibody (Goat anti-human Kappa LC-HRP, BETHYL # A80-115P) diluted in sample buffer was added to each well and incubated for 1 h at RT with shaking. After washing the plate again three times, 30 μl of detection reagent (LumiGLO Peroxidase Chemiluminescent Substrate, KPL #54-61-01) was added to each well. Electrochemiluminescence (ECL) signals were generated and detected immediately with a luminescence imager (SpectraMax M5, Molecular Devices, LLC).
Average ECL-signals were calculated from duplicate measurements within each assay. Data were baseline adjusted by subtracting the lowest value from all data points and plotted against the corresponding antigen concentration. KD values were determined by fitting the plot with the following non-linear curve fitting model for 1:1 binding according to Haenel et al 2005: […]
Target sequence in this assay (VH, as listed by the source, chain 1 of 2): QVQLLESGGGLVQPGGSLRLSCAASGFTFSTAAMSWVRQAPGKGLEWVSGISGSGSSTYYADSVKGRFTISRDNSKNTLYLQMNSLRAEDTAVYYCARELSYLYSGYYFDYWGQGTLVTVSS
Target sequence in this assay (VL, as listed by the source, chain 2 of 2): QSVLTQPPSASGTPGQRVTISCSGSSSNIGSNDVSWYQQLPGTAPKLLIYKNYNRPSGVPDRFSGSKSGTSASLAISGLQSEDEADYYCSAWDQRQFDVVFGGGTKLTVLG

[2] = target: T1, NOV1401; experiment: cell-based or functional assay
[3] = target: T1, NOV1401; experiment: cell-based or functional assay; remark: listed apart in the source
[4] = target: T1, NOV1401; experiment: SPR (ProteOn XPR36), NOV1401 immobilized, Fab as analyte, 1:1 Langmuir fit, average
Description: SPR binding experiments were performed on a ProteOn XPR36 instrument (Bio-Rad Laboratories, Inc.) in PBS/T buffer (50 mM phosphate, 150 mM NaCl, pH 7.4, 0.005% v/v Tween-20) at 25° C. NOV1401 (‘Ligand’) was immobilized onto an activated ProteOn GLC sensor chip (Bio-Rad Laboratories, Inc.) using standard amine coupling procedures as described by the manufacturer. Briefly, NOV1401 was injected at a concentration of 10 μg/ml in 20 mM sodium acetate, pH 5.0 and at a flow rate of 30 μl/min for 10 min. Unreacted groups were blocked by injecting 1 M ethanolamine.
For kinetic studies anti-NOV1401 Fabs (‘Analytes’) were diluted in PBS/T buffer to generate a dilution series with concentrations ranging from 0.125-4 nM. Fabs were injected onto surfaces with immobilized NOV1401 at a flow rate of 100 μL/min and sensorgrams were recorded for association and dissociation times of 220 s and 1800 s, respectively. Blank surfaces were used for background corrections. There was no need to regenerate surfaces since the ProteOn protein interaction array system allows to run up to six binding experiments on an identical surface in parallel.
Data processing and analysis including kon, koff, and KD determination were performed with the ProteOn Manager™ software version 3.1.0.6.

[5] = target: T1, NOV1401; experiment: SET (solution equilibrium titration): constant anti-NOV1401 Fab with a NOV1401 dilution series, free Fab captured on a biotinylated-NOV1401 streptavidin plate, luminescence (RLU), 1:1 fit
Description: as §1
as §2, with “After washing the plate again three times, 30 μl of detection reagent (LumiGLO Peroxidase Chemiluminescent Substrate, KPL #54-61-01) was added to each well.” left out
Target sequence in this assay (VL, as listed by the source): as the sequence (VL, as listed by the source, chain 2 of 2) above
Average ECL-signals were calculated from duplicate measurements within each assay. […] KD values were determined by fitting the plot with the following non-linear curve fitting model for 1:1 binding according to Haenel et al 2005: […]

Binder	Kd [1] [nM]	aPTT percentage reversal, NOV1401/anti NOV1401 ratio 1/1 (n/n) [2] [%]	aPTT percentage reversal, NOV1401/anti NOV1401 ratio 1/3 (n/n) [2] [%]	aPTT percentage reversal, NOV1401/anti NOV1401 ratio 1/10 (n/n) [2] [%]	TGA percentage reversal, NOV1401/anti NOV1401 ratio 1/1 (n/n) [3] [%]	TGA percentage reversal, NOV1401/anti NOV1401 ratio 1/3 (n/n) [3] [%]	TGA percentage reversal, NOV1401/anti NOV1401 ratio 1/10 (n/n) [3] [%]	Kd [4] [nM]	Kd [5] [nM]
IDT10 (Fab, V domains shown, Fab; also called anti-NOV1401 Fab IDT10) VH: QVQLVQSGAEVKKPGASVKVSCKASGYTFTNYYVHWVRQAPGQGLEWMGWINPYSGNTNYAQKFQGRVTMTRDTSISTAYMELSRLRSEDTAVYYCARGASSIRMSYYLDVWGQGTLVTVSS VL: DIQMTQSPSSLSASVGDRVTITCRASQSISNYLNWYQQKPGKAPKLLIYAASNLQSGVPSRFSGSGSGTDFTLTISSLQPEDFATYYCFQYTHSPATFGQGTKVEIKR	1.19	12	25	40	37	45	57	5.97	–
IDT5 (Fab, V domains shown, Fab; also called anti-NOV1401 Fab IDT5) VH: QVQLVESGGGLVKPGGSLRLSCAASGFTFSSAAVHWVRQAPGKGLEWVGRIKSKADAGTTDYAAPVKGRFTISRDDSKNTLYLQMNSLKTEDTAVYYCARDSPSISSYSIPYFSGMDVWGQGTLVTVSS VL: DIQMTQSPSSLSASVGDRVTITCRASQGIRAWLNWYQQKPGKAPKLLIYAASSLQSGVPSRFSGSGSGTDFTLTISSLQPEDFATYYCHQYITHPPTFGQGTKVEIKR	0.14	17	42	56	55	56	72	0.35	–
IDT8 (Fab, V domains shown, Fab; also called anti-NOV1401 Fab IDT8) VH: QVQLVESGGGLVKPGGSLRLSCAASGFTFSSNAMHWVRQAPGKGLEWVGRIKSKTSGGTTDYAAPVKGRFTISRDDSKNTLYLQMNSLKTEDTAVYYCARDHYYYPFAYWGQGTLVTVSS VL: DIQMTQSPSSLSASVGDRVTITCRASQSIRYNLAWYQQKPGKAPKLLIYAASSLQSGVPSRFSGSGSGTDFTLTISSLQPEDFATYYCHQYIAKPITFGQGTKVEIKR	0.16	8	25	42	41	56	69	2.15	0.96
IDT6 (Fab, V domains shown, Fab with a lambda light chain; also called anti-NOV1401 Fab IDT6) VH: QVQLVQSGAEVKKPGESLKISCKGSGYSFTNYWIGWVRQMPGKGLEWMGIIFPGVSYTKYSPSFQGQVTISADKSISTAYLQWSSLKASDTAMYYCARGSDQTLRGSRAMDYWGQGTLVTVSS VL: QSALTQPASVSGSPGQSITISCTGTSSDVGISNYVSWYQQHPGKAPKLMIYEVSNRPSGVSNRFSGSKSGNTASLTISGLQAEDEADYYCQSYTSLNYVFGGGTKLTVLG	–	9	22	38	18	41	37	10.1	–
